Assay results as given in PMC314469, “Protein Interaction Networks by Proteome Peptide Scanning” (PLoS Biology, 2004).

T1: Yfr024 SH3 (LSB3_YEAST), P43603
T1 chain: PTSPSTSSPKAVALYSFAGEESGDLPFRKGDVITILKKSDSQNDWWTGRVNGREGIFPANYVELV

T2: Yhr016c SH3 (YSC84_YEAST), P32793
T2 chain: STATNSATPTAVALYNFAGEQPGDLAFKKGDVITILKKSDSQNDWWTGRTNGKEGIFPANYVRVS

T3: Boi1 SH3 (BOI1_YEAST), P38041
T3 chain: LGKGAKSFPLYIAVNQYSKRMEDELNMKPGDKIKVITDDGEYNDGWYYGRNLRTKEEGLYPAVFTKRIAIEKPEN

T4: Myo5 SH3 (MYO5_YEAST), Q04439
T4 chain: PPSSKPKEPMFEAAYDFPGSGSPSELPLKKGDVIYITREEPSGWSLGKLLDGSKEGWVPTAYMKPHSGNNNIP

T5: Rvs167 SH3 (RV167_YEAST), P39743
T5 chain: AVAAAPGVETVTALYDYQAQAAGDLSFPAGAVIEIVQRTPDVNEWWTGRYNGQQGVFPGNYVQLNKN

T6: Boi2 SH3 (BOI2_YEAST), P39969
T6 chain: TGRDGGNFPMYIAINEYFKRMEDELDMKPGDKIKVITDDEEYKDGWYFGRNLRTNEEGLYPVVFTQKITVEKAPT


Experiments:
Assay in all cases: SPOT array
[1] = biological target: T1, Yfr024 SH3 (LSB3_YEAST), P43603
[2] = biological target: Sho1 SH3 (SHO1_YEAST), P40073
Sho1 SH3 (SHO1_YEAST), P40073, sequence (P40073 295-366): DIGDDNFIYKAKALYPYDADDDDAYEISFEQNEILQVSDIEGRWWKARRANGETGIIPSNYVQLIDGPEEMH

[3] = biological target: T2, Yhr016c SH3 (YSC84_YEAST), P32793
[4] = biological target: T3, Boi1 SH3 (BOI1_YEAST), P38041
[5] = biological target: T4, Myo5 SH3 (MYO5_YEAST), Q04439
[6] = biological target: T5, Rvs167 SH3 (RV167_YEAST), P39743
[7] = biological target: T6, Boi2 SH3 (BOI2_YEAST), P39969

normalised SPOT signal, Boehringer light units (BLU); mean over the file's lines of this peptide [1]	normalised SPOT signal, Boehringer light units (BLU); mean over the file's lines of this peptide [2]	normalised SPOT signal, Boehringer light units (BLU); mean over the file's lines of this peptide [3]	normalised SPOT signal, Boehringer light units (BLU); mean over the file's lines of this peptide [4]	normalised SPOT signal, Boehringer light units (BLU); mean over the file's lines of this peptide [5]	normalised SPOT signal, Boehringer light units (BLU); mean over the file's lines of this peptide [6]	normalised SPOT signal, Boehringer light units (BLU); mean over the file's lines of this peptide [7]	Binder
1600	975	257	5020	785	1830	1390	DFRGRAYPLSPHFN [YFL036W 825-838]
0	26.9	18.3	170	146	0	17.3	DILKKESPDVPLFD [YBR155W 341-354]
748	33.7	116	14100	33	956	52.6	DIPRRYIPITPADL [YMR126C 79-92]
48300	31.3	36000	344	102	52200	23.2	DIKTRSVPKIPSIE [YBR163W 320-333]
50	608	12.3	3940	220	38.1	34.4	DIGSKKLPTGPSKK [YER164W 1276-1289]
13.5	15	4.6	110	62.9	26	12.3	DIPLKQVPENPMPT [YIL155C 374-387]
315	48.8	48.7	1850	307	68.6	3.5	DGKLKHIPRRPYEI [YEL007W 26-39]
